Patent publication US20140024555A1 (LOS ALAMOS NATIONAL SECURITY, published 2014)

Assays:
[1] = target: T1, YBGK of Escherichia coli with C-terminal GFP S11 tag (Escherichia coli, UniProt P75745 1-310); assay: colony filtration immobilized bead assay, capture plates with TNG buffer (FIG. 4B); complex 6
T1 construct: Labelled by complementation with co-expressed GFP 1-10 detector; also called last subunit of YBGJ/YBGK (predicted allophanate hydrolase); not shown: flexible linker and C-terminal GFP S11 tag of the pTET S11 vector
T1 sequence: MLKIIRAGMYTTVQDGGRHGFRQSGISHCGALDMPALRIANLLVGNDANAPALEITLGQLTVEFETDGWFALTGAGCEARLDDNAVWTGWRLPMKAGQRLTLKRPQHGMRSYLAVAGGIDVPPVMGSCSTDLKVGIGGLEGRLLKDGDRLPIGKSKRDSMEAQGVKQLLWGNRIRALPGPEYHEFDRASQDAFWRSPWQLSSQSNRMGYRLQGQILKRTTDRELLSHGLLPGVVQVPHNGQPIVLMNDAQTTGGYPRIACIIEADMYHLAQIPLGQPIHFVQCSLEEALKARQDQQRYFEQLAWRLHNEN

[2] = target: T2, YheM subunit of the E. coli YheML construct, with N-terminal 6-His tag (Escherichia coli, UniProt P45531 1-119); assay: colony filtration immobilized bead assay: 6-His subunit captured on Talon resin in agarose, GFP S11 subunit read by complemented GFP fluorescence; YheML construct with YheN omitted
T2 construct: Negative control construct in which YheN is omitted; the first subunit of each construct carries the 6-His tag; also called TusC; first subunit of Yhe ML; not shown: N-terminal 6-His tag from the N-6His pTET S11 vector
T2 sequence: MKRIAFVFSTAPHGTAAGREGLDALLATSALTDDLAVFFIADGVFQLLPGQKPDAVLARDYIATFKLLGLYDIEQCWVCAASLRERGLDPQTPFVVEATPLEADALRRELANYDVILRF

B1: YBGJ of Escherichia coli with N-terminal 6-His tag (other)
chain: MQRARCYLIGETAVVLELEPPVTLASQKRIWRLAQRLVDMPNVVEAIPGMNNITVILRNPESLALDAIERLQRWWEESEALEPESRFIEIPVVYGGAGGPDLAVVAAHCGLSEKQVVELHSSVEYVVWFLGFQPGFPYLGSLPEQLHTPRRAEPRLLVPAGSVGIGGPQTGVYPLATPGGWQLIGHTSLSLFDPARDEPILLRPGDSVRFVPQKEGVC
notes: also called predicted allophanate hydrolase; not shown: N-terminal 6-His tag from the N-6His pTET S11 vector
- binding result [1]: binds

B2: YheL subunit of the E. coli YheNML / YheML constructs, with C-terminal GFP S11 tag (other)
chain: MLHTLHRSPWLTDFAALLRLLSEGDELLLLQDGVTAAVDGNRYLESLRNAPIKVYALNEDLIARGLTGQISNDIILIDYTDFVRLTVKHPSQMAW
notes: Fluorescently labelled in the cell by complementation with co-expressed GFP 1-10 detector; also called TusB; last subunit of Yhe NML and Yhe ML; not shown: flexible linker and C-terminal GFP S11 tag (beta-strand 11, residues 215-230) of the pTET S11 vector; the S11 variant an
- binding result [2]: no binding
